Data set [1] has as its system human polyclonal IgG in CHO-S cell culture fluid. As to the kind of experiment: Static purification of IgG from CHO cell culture supernatant on peptide-Toyopearl resins, SDS-PAGE densitometry. The procedure: (§1) Measurement of IgG binding by peptide-based chromatographic adsorbents: For initial studies, 35 mg of MWRGWQ (SEQ ID NO:2)-Toyopearl, RHLGWF (SEQ ID NO:3)-Toyopearl, WQRHGI (SEQ ID NO:1)-Toyopearl, GWLHQR (SEQ ID NO:4)-Toyopearl, and HWRGWV (SEQ ID NO:18)-Toyopearl (control) resins were equilibrated in PBS pH 7.4, reaching a swollen volume of 0.1 mL, and subsequently incubated with 1 mg/mL IgG in 0.205 mg/mL CHO cell culture supernatant for 30 minutes. The resins were subsequently washed several times with PBS to remove non-specifically bound proteins. Elution was performed with 100 mM glycine buffer pH 2.5. Flowthrough and elution fractions were collected and analyzed by SDS PAGE under reducing conditions. The resulting gels were stained with Coomassie staining. Further, 25 mg of the adsorbents MWRGWQ (SEQ ID NO:2)-Toyopearl, NIFRGWQ (SEQ ID NO:21)-Toyopearl, MWRAWQ (SEQ ID NO:5)-Toyopearl, MWRGFQ (SEQ ID NO:7)-Toyopearl, MWRGWN (SEQ ID NO:22)-Toyopearl, (NorL) WRGWQ (SEQ ID NO:23)-Toyopearl, MGRGWQ (SEQ ID NO:24)-Toyopearl, MWRWQ (SEQ ID NO:6)-Toyopearl, MWRGGQ (SEQ ID NO:26)-Toyopearl, GWRGWQ (SEQ ID NO:8)-Toyopearl, WQRHGI (SEQ ID NO:1)-Toyopearl, WNRHGI (SEQ ID NO:12)-Toyopearl, WQRAGI (SEQ ID NO:28)-Toyopearl, WQRHAI (SEQ ID NO:11)-Toyopearl, WQRHGL (SEQ ID NO:9)-Toyopearl, FQRHGI (SEQ ID NO:29)-Toyopearl, and WQRHGV (SEQ ID NO:10)-Toyopearl resins were equilibrated in PBS pH 7.4, reaching a swollen volume of 0.1 mL, and subsequently incubated with 1 mg/mL IgG in PBS at pH 7.4 for 30 minutes. The amount of unbound IgG in the supernatant samples was quantified by Bradford assay and utilized to determine the IgG binding % by the peptide variants.
Characterization of IgG-binding peptide variants WQRHGI (SEQ ID NO:1), MWRGWQ (SEQ ID NO:2), RHLGWF (SEQ ID NO:3), and GWLHQR (SEQ ID NO:4) in competitive conditions: The four selected sequence variants were tested for their ability to purify human IgG from a CHO cell culture supernatant and found largely to mirror their in silico predictions. Even though they seemed to underperform in silico, RHLGWF (SEQ ID NO:3) and GWLHQR (SEQ ID NO:4) were tested alongside WQRHGI (SEQ ID NO:1) and MWRGWQ (SEQ ID NO:2) in these conditions in order to confirm their ability to bind IgG and examine their selectivity as predicted in silico. The feedstock was prepared by spiking human polyclonal IgG into a clarified null CHO-S cell culture fluid to obtain an IgG concentration of 1 mg/mL and a CHO HCP concentration of 0.205 mg/mL. An aliquot of 500 μL was loaded onto each peptide adsorbent in static conditions for 30 min. Following a washing step with PBS to remove loosely bound proteins, a first elution step was conducted using 0.1 M glycine buffer pH 2.5 to remove all bound proteins. Flow through fractions and pH 2.5 elution fractions were loaded neat and analyzed by SDS PAGE (FIGS. 6A-6B). The values of IgG purity in the eluted fractions were determined by densitometric analysis of the corresponding lanes on the gels, and are reported in Table 9.

Data set [2] shares this test system. The description is as above. The conditions noted are these: Gel B, lane E (pH 4).
The next data set concerns human IgG. Format: binding. Here is the method: as §1
A limited library of residue-by-residue changes confirmed the importance of each residue in peptides WQRHGI (SEQ ID NO:1) and MWRGWQ (SEQ ID NO:2) in reducing the binding energy between the peptide and the IgG target. […] This was accomplished by designing and constructing an ensemble of 20 variants of peptides WQRHGI (SEQ ID NO:1) and MWRGWQ (SEQ ID NO:2). Selected residues in positions 1-6 were mutated. The peptide variants were synthesized directly on Toyopearl AF-amino-650M resin via Fmoc/tBu chemistry. The resulting adsorbents were incubated with a solution of human IgG at 2 mg/mL at a ratio of 1 mL of resin per 3.5 mL of solution for 30 min at room temperature. The residual concentration of IgG in solution was determined by Bradford concentration assay of the supernatants and utilized to calculate the amounts of bound IgG per volume of resin; Table 7 reports the % binding, defined as mg IgG bound by variant/mg IgG bound by original sequence (either WQRHGI (SEQ ID NO:1) or MWRGWQ (SEQ ID NO:2))×100%, of each sequence variant.

A short description of data set [3]: Solubility of free peptide in buffer (preparation for ITC). Format: physicochemical. Here is the method:
MWRGWQ (SEQ ID NO:2) was unable to be examined via ITC. Peptide MWRGWQ (SEQ ID NO:2) was not soluble in pH 7.4 buffer, likely due to self-associative properties. MWRGWQ (SEQ ID NO:2) was found soluble in highly acidic buffer, but ITC results were confounded by the heat of mixing between acidic and neutral solutions. […] Attempts were made to raise the pH of buffer in which MWRGWQ (SEQ ID NO:2) was dissolved, but the peptide was seen to gel when the pH was raised above 5.
MWRGWQ's (SEQ ID NO:2) binding affinity could not be examined using ITC. […] However, when the peptide was dissolved in a lower pH solution, the heat of mixing between the different pH solutions was extremely high, and peptide-peptide or peptide-IgG binding energies upon titration became difficult to differentiation from the heat of mixing in ITC experiments.

The subject of data set [4] is human polyclonal IgG in CHO cell culture fluid. Put plainly: Chromatographic purification of IgG from CHO cell culture fluid on WorkBeads resin, SDS-PAGE densitometry. The conditions noted are these: FIG. 8, reduced ligand density 35.2 milliequivalents/mL. Here is the method: Purification of IgG from CHO Cell culture fluids using MWRGWQC (SEQ ID NO:31)- and WQRHGIC (SEQ ID NO:30)—Workbeads: A volume of 0.1 mL of resin was packed in a PEEK microbore column, installed on a Waters 2695 unit, and equilibrated with PBS, pH 7.4. All chromatographic buffers were filtered through a compatible 0.2 μm filter prior to use. A volume of 100 μL of solution of human polyclonal IgG at 1 mg/mL in a CHO cell culture fluid at 0.205 mg/mL CHO HCPs was injected in the column at 0.02 mL/min (RT: 5 minutes). Following injection, the resin was washed with PBS at 0.2 mL/min and, subsequently, with 100 mM NaCl in PBS at 0.2 mL/min. Elution was then conducted with […] pH 4. An acidic cleaning step was conducted in 0.1 M glycine pH 2.5 to remove any proteins still bound. The absorbance of the effluent was monitored by UV/Vis spectrophotometry at 280 nm. Fractions were collected and adjusted to neutral pH. Total protein concentration was measured by BCA assay. All collected fractions were also analyzed via SDS PAGE under reducing conditions. The gel was stained by silver staining, and the overall IgG purity in the eluted fractions was determined by densitometric analysis using ImageJ software. Finally, the feed and eluted fractions were analyzed using a CHO-specific ELISA kit to determine the log removal value (LRV) of HCPs.
The high purity of the recovered IgG using WQRHGI (SEQ ID NO:1), as calculated by densitometric analysis (100%) was confirmed by the HCP LRV value of 2.7, thus indicating WQRHGI (SEQ ID NO:1) has purification abilities similar to Protein A. This is a remarkable result. […] The collected chromatographic fractions were analyzed by SDS-PAGE (FIG. 7B, silver stained to highlight diluted CHO HCPs). The % values of IgG in the fractions (expressed as a ratio of IgG concentration over total protein (e.g., IgG+CHO HCPs)) were calculated by densitometric analysis of the lanes in the SDS gel and were as follows: Control (C), 0.00%; Load (L) 59.77%; Flowthrough (FT), 0.00%; Elution 1 (El1), 100.00%; Elution 2 (El2), 0.00%; IgG 93.30%. […]

Another data set has as its system host cell protein (HCP). The conditions noted are these: literature value; cited from earlier work.
The target of data set [5] is human polyclonal IgG (human). As to the kind of experiment: breakthrough curve, 20 mg/mL IgG in PBS on a peptide-WorkBeads column, residence time 2 min.
Data set [6] concerns the target human polyclonal IgG (human). Put plainly: breakthrough curve, 20 mg/mL IgG in PBS on a peptide-WorkBeads column, residence time 5 min.
Data set [7] addresses human polyclonal IgG (human). As to the kind of experiment: batch adsorption isotherm of IgG on peptide-WorkBeads resin, BCA of unbound IgG, Langmuir fit.
The target in data set [8] is human polyclonal IgG (human). As to the kind of experiment: batch adsorption isotherm of IgG on peptide-WorkBeads resin, BCA of unbound IgG, Langmuir fit (KD(Solid)).
The target in data set [9] is human polyclonal IgG (human). Put plainly: ITC at 25 C, peptide titrated into polyclonal IgG in PBS pH 7.4, independent single-site fit.
Data set [10] deals with human polyclonal IgG (human). Put plainly: batch incubation of peptide-Toyopearl resin with human IgG, Bradford of unbound IgG; mg IgG bound relative to WQRHGI (the reference itself).
The target in data set [11] is human polyclonal IgG (human). As to the kind of experiment: batch incubation of peptide-Toyopearl resin with human IgG, Bradford of unbound IgG; mg IgG bound relative to MWRGWQ (the reference itself).

We go through seven molecules from patent publication US20230399358A1, “IMMUNOGLOBULIN PURIFICATION PEPTIDES AND THEIR USE” (North Carolina State University, priority 2019, published 2023).

“Also recorded” adds a separate entry of the source. No end group written: not given here.

Consider GWLHQR, for which the “% Purity (IgG over total proteins)” value in [1] (Gel B, lane FT (flow-through)) amounted to 57.02%. Moreover, the “% Purity (IgG over total eluted proteins)” value in data set [1] (Gel B, lane R (pH 2.5)) is recorded as 0.00%; in data set [2], 100%. The IgG yield result in data set [1] (competitive conditions, CHO cell culture supernatant) was “lower than expected IgG yields; also recorded: lower IgG yield”.

As to MWRGWQ [MWRGWQ], in the data set with human IgG, the “% Binding (mg IgG bound by variant/mg IgG bound by original sequence × 100%)” value amounted to 100.00%. Also, the solubility entry in [3] (highly acidic buffer / lower pH) was “soluble; also recorded: could be dissolved”; in [3] (pH 7.4 buffer / neutral pH), “not soluble; also recorded: tended to gel”.

With “Protein A: Protein A adsorbent, industrial standard for mAb capture”, the “% Purity (IgG over total protein)” value in data set [4] (elution lane (pH 4)) stood at 100.00%; in data set [4] (lane FT) it was 55.74%. The “HCP LRV” value in the data set on host cell protein (HCP) is 2.5-3.0.

On to WQRHGIC(iodoacetyl‑activated TREN WorkBeads resin) (not fully specified) [WQRHGIC (SEQ ID NO:30)-WorkBeads], for which the DBC (dynamic binding capacity at 10% breakthrough) (mg IgG/mL resin) in [5] was determined as 33.6; in [6], 43.8. For the same molecule, the Qmax (mg IgG/mL resin) in data set [7] came out at 52.6. Also, the Kd (in general, the constant that tells how readily two partners part at equilibrium) in [8] came to 3.2 µM.

For the molecule WQRHGI [WQRHGI (SEQ ID NO:1)], in data set [9], the Kd stood at 58.8 µM and the stoichiometry (N, interacting peptides per IgG) (peptides per IgG) was found to be 10. The molecule further registered a % Binding in data set [10] of 100%.

Regarding MWRGWQC(iodoacetyl‑activated TREN WorkBeads resin) (not fully specified) [MWRGWQC (SEQ ID NO:31)-WorkBeads], the results for the DBC (dynamic binding capacity at 10% breakthrough) (mg IgG/mL resin) in data set [5] and in data set [6] were 44 and 55.3, respectively. Moreover, in data set [7], the Qmax (mg IgG/mL resin) came out at 57.5. In addition, the Kd in [8] turned out to be 8.1 µM.

Consider MWRGWQ [MWRGWQ (SEQ ID NO:2)], for which, in [11], the % Binding is 100%.
